Test results from patent US20160327558.

Experiments:
[1] = system: z-VRPR-FMK
[2] = system: probe 5 (FITC-LRSR-AOMK)

Question: Which “in vitro protease activity measurements (zRR-AMC cleavage)” value [1] does the source give for Human cathepsin B here?
Answer: also abrogated cathepsin B activity even though slightly less efficient

Question: And the “in vitro protease activity measurements (zRR-AMC cleavage)” value [2]?
Answer: also abrogated cathepsin B activity even though slightly less efficient
